Results reported in patent US20250145690A1 (US Dept. of Health and Human Services, published 2025).

Tests used:
Assay in all cases: bead flow cytometry, AUC minus CD4
[1] = biological target: T1, HCoV-NL63 spike protein (Sino Biological 40604-V08B) (HCoV-NL63, UniProt Q6Q1S2 19-1296)
T1 sequence: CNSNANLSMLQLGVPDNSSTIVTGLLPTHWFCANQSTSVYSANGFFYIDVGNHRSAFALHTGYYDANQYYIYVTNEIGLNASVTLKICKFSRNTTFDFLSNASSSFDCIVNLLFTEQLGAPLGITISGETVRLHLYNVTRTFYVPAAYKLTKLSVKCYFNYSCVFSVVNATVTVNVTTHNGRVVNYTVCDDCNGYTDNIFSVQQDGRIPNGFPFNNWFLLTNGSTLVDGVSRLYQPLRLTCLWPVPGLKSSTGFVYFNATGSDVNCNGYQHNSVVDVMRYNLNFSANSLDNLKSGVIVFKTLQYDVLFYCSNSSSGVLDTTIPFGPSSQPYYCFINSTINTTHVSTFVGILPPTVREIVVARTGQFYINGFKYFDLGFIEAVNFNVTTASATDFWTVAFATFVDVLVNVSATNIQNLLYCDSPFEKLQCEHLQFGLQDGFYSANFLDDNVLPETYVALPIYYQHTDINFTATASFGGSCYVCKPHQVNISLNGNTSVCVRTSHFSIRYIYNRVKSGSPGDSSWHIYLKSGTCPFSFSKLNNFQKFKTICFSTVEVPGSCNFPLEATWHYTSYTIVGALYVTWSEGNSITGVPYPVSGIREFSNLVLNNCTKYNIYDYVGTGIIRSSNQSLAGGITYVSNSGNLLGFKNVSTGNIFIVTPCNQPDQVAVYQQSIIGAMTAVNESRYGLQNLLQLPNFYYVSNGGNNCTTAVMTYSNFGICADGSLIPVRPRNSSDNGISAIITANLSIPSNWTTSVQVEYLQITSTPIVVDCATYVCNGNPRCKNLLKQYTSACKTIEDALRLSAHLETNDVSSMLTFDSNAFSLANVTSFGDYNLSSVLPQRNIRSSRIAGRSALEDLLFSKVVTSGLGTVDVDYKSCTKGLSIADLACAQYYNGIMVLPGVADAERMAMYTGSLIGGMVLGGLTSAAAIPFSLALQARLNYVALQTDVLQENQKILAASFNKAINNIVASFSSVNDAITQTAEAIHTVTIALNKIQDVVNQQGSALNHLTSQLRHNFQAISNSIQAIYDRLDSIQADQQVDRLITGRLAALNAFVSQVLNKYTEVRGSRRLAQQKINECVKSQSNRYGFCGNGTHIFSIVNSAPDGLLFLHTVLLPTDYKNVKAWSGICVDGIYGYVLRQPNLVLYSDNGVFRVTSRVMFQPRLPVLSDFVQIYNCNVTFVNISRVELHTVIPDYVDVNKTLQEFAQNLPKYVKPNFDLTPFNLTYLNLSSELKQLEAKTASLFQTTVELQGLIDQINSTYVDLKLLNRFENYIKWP

[2] = biological target: T2, HCoV-229E spike protein (Sino Biological 40605-V08B) (HCoV-229E, UniProt P15423 16-1115)
T2 sequence: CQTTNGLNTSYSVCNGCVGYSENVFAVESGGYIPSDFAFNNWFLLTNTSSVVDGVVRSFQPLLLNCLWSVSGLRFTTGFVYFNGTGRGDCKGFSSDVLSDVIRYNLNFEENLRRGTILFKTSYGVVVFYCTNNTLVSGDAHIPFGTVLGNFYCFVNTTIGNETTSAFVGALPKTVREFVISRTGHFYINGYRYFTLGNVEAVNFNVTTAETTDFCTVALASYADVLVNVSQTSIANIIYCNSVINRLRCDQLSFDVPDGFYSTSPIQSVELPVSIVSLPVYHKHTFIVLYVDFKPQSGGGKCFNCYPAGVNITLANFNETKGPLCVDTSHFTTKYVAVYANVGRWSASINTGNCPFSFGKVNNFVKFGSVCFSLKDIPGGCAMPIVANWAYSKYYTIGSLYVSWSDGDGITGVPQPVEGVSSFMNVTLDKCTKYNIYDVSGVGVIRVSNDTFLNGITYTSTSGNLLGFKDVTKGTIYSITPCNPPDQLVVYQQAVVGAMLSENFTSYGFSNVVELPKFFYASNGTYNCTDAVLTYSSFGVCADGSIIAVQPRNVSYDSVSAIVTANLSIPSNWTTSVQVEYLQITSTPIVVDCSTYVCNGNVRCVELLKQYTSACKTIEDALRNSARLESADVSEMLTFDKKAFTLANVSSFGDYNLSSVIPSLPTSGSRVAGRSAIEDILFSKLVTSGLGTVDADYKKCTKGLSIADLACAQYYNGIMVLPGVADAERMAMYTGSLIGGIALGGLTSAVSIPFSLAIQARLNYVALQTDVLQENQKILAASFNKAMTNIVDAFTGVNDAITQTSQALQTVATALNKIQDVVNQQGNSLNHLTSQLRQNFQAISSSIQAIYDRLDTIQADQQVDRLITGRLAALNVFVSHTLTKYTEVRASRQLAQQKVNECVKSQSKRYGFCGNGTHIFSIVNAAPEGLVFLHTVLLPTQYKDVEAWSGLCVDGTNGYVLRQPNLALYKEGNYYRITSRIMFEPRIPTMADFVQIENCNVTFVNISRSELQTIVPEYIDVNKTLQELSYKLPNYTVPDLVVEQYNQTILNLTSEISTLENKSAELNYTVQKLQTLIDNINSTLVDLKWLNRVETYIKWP

[3] = biological target: SARS-CoV-2 spike receptor binding domain (RBD), recombinant (SARS-CoV-2, UniProt P0DTC2 319-541)
[4] = biological target: SARS-CoV-2 spike N-terminal domain (NTD), recombinant (SARS-CoV-2, UniProt P0DTC2 14-305)

Measured: binding result

B1: COV49-06 (antibody, V domains shown)
VH: EVQLLESGGGLVRPGGSLRLSCAASGFTFTNYAMSWVRQAPGKGLEWVSAISGGDGRTSYYADSVKGRFTSSRDNSKNTLYLQMNSLRAEDTAVYYCAKGAFYNILSSIIVEGDYWGQGTLVTVSS
VL: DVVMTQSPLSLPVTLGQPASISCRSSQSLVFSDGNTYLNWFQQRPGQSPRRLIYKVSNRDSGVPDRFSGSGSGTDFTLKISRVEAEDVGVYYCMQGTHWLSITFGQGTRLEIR
no binding (tested: 200 µg/mL): all assays above

B2: COV49-04 (antibody, V domains shown)
VH: EVQLLESGGGLVQPGGSLRLSCATSGFTFSSYAMTWVRQAPGKGLEWVSAISGGGATTYSTDSVKGRFTTSRDNSKNTLYLQMNNLRAEDTALYYCAKGAFYNILSSIIVEGDYWGQGTLVTVSS
VL: DVVMTQSPLSLSVTLGQPASISCRSSQSLVFSDGDTYLNWFQQRPGQSPRRLIYRVSNRDSGVPDRFSGSGSGTDFTLKISRVEAEDVGVYYCMQGTHWLSITFGQGTRLDIK
no binding (tested: 200 µg/mL): all assays above

B3: COV49-05 (antibody, V domains shown)
VH: EVQLLESGGGLAQPGGSLRLSCVASGFSFNDYAMTWVRQAPGKGLEWVSAVSSGGQTTYSTDSVKGRFTISRDNSKNMLYLQMNSLRAEDTAVYYCVKGAFYNILSSIIVEGDYWGQGTLVTVSS
VL: GVVLTQSPLSLPVTLGQPASISCRSSQSLVFSDGNTYLNWFQQRPGQSPRRLIYQVSNRDPGVPDRFSGSGSGTDFTLKISRVEAEDVGVYYCMQGTHWLSITFGQGTRLEIK
no binding (tested: 200 µg/mL): all assays above

B4: COV49-30 (antibody, V domains shown)
VH: EVQLLESGGGLVQPGGSLRVSCTVSGFTFSDYSMSWVRQAPGKGLDWVSAISGTGETAYYADFVKGRFTSSRDNSKNTVYLQMNSLRGEDTAVYYCVKGVFYNILSSIIVEGDYWGQGTLVTVSS
VL: GVVMTQSPLSLPVTLGQPASISCRSSQSLVFSDGNTYLNWFQQRPGQSPRRLIYKVSKRDSGVPDRFSGSGSGTDFTLTISRVEAEDVGVYYCMQGTHWLSITFGQGTRLEIK
no binding (tested: 200 µg/mL): all assays above

B5: COV49-07 (antibody, V domains shown)
VH: EVQLLESGGGLVQPGGSLRVSCTVSGFTFSDYSMSWVRQAPGKGLEWVSAISGTGETAYYADFVKGRFTSSRDNSKNTLYLQMNTLRGEDTAVYYCVKGAFYNILSSIIVEGDYWGQGTLVTVSS
VL: GVVMTQSPLSLPVTLGQPASISCRSSQSLVFSDGNTYLNWFQQRPGQSPRRLIYKVSERDSGVPDRFSGSGSGTDFTLTISRVEAEDVGVYYCMQGTHWLSITFGQGTRLEIK
no binding (tested: 200 µg/mL): all assays above

B6: COV49-28 (antibody, V domains shown)
VH: GVQLLESGGGLAQPGGSLKLSCVASGFSFNDYAMTWVRRPPGKGLEWVSAVSSGGQTSYSTDSVKGRFTISRDNSKNTLYLQMSSLRAEDTAIYYCVKGAFYNILSSIIVEGDYWGQGTLVTVSS
VL: GVVLTQSPLSLPVTLGQPASISCRSSQSLVFSDGKTYLNWFQQRPGQSPRRLIYQVSNRDPGVPDRFSGSGSGTDFTLKISRVEAEDVGVYYCMQGTHWLSITFGQGTRLEIK
no binding (tested: 200 µg/mL): all assays above

B7: COV49-47 (antibody, V domains shown)
VH: EVQLLESGGGLAQPGGSLRLSCVASGFSFNDYAMAWVRQAPGKGLEWVSAVSGGGQTTYSTDSVKGRFTTSRDNSKNTLYLQMNGLRAEDAAVYYCVKGAFYNILSSIIVEGDNWGQGTLVTVSS
VL: GVVLTQSPLSLPVTLGQPASISCRSSQSLVFSDGNTYLNWFQQRPGQSPRRLIYQVSNRDPGVPDRFSGSGSGTDFTLKISRVEAEDVGVYYCMQGTHWLSITFGQGTRLEIK
no binding (tested: 200 µg/mL): all assays above

B8: COV49-33 (antibody, V domains shown)
VH: EVQLLESGGGLAQPGGSLRLSCVASGFSFDDYAMTWVRQPPGKGLEWVSAVSGGGQTTYSTDSVKGRFTTSRDNSKNTLYLQMNSLRGEDTAVYYCVKGAFYNILSSIIVEGDYWGQGTLVTVSS
VL: VVVLTQSPLSLPVTLGQPASVSCRSSQSLVFSDGNTYLNWFQQRPGQSPRRLIYQVSNRDPGVPDRFSGSGSGTDFTLKISRVEAEDVGVYYCMQGTHWLSITFGQGTRLEIK
no binding (tested: 200 µg/mL): all assays above

B9: COV49-23 (antibody, V domains shown)
VH: EVQLLESGGGLAQPGGSLRISCVASGFSFNDYAMAWVRRAPGKGLEWVSAVSGGGQTTYSTDSVKGRFTTSRDNSKNTLYLQMNGLRAEDTAVYYCVKGAFYNILSSIIVEGDYWGQGALVTVSS
VL: GVVLTQSPLSLPVTLGQPASISCRSSQSLVFSDGNTYLNWFQQRPGQSPRRLIYQVSNRDPGVPDRFSGSGSGTDFTLKISRVEAEDVGVYYCMQGTHWLSITFGQGTRLEIK
no binding (tested: 200 µg/mL): all assays above
